Publication PMC12803839

Target: pyruvate kinase M2 (human (endogenous in HK-2)) (UniProt P14618)
Test: cross-linking; proteins of HK-2 cells treated with vehicle or compound 3k; DSS 1 mM, room temperature, 30 min, quenched with 20 mM Tris; SDS-PAGE and Western blot for PKM2; more monomer and less dimer and tetramer with compound 3k

Chain of pyruvate kinase M2, P14618 1-531 (natural protein; other documents disagree on this pair) (P14618 whole entry): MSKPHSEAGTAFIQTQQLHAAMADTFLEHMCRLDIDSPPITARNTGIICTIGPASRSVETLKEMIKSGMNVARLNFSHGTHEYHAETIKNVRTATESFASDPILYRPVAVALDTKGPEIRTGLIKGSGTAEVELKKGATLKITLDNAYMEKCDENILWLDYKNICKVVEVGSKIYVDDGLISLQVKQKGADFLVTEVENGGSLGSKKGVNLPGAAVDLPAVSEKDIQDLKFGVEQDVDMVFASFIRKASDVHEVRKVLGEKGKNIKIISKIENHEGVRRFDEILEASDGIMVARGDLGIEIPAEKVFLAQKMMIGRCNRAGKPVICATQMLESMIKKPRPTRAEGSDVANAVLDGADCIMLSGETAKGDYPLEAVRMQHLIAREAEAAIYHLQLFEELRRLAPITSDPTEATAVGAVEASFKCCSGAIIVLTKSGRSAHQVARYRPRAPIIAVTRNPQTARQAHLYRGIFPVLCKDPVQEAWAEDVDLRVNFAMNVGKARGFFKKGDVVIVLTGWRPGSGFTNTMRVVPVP

stoichiometry N: 2
Substance: pyruvate kinase M2, P14618 1-531 (natural protein; other documents disagree on this pair)
